Where a chain is given by its changes, count along the chain named. Names may count otherwise.
Columns and labels:
Test in all cases: phage ELISA
[1] = target: T1, human HVEM extracellular domain fused with an Fc fragment at the C-terminus (human, UniProt Q92956 39-202)
T1 construct: extracellular domain; Bought; also called hHVEM; not shown: Fc fragment at the C-terminus
T1 sequence (looked up): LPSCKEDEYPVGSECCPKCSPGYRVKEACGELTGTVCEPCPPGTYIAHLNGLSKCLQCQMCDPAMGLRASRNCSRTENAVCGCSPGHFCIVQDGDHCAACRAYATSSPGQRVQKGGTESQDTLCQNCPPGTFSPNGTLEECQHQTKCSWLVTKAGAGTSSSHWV
Experimental: (§1) Individual clones from the fourth selection round were grown in 96-well deep well blocks in 100 μl of 2YT broth supplemented with 50 μg/ml ampicillin at 37° C. and 220 rpm for 5 hours. Then, 5 μl of helper phages were added to each well and incubated at 37° C. for 30 minutes. After centrifuging at 3,000 rpm for 10 minutes, the cells were resuspended and grown overnight in 150 μl/well of 2YT broth supplemented with 50 μg/ml ampicillin and 50 μg/ml kanamycin.
(§2) For the ELISA screening, 96-well ELISA plates were coated with target proteins (1 μg/ml in PBS) at 4° C. overnight and then blocked with 2% BSA for 2 hours at room temperature. The supernatant containing phage particles was added to the plates and incubated at room temperature for 1 hour. After incubation, the plates were washed five times with PBST. HRP (horseradish peroxidase) conjugated anti-M13 antibody (Sino Biological, China) was added to the wells and incubated at room temperature for 1 hour. Following another round of washing five times with PBST, 50 μl of TMB (3,3′, 5,5″-tetramethylbenzidine, #34029, ThemoFisher) was added to each well. After 5 minutes, the reaction was stopped by adding 50 μl stop solution (#C1058, Solarbio, China). The absorbance at 450 nm (OD450) was measured using a plate reader (SpectraMax M5, Molecule Devices). Wells coated with BSA were used as negative controls. Phage clones with an ELISA score ratio (target/BSA)>3 were considered positive clones.

[2] = target: T2, human LTβR extracellular domain fused with an Fc fragment at the C-terminus (human, UniProt P36941 31-227)
T2 construct: extracellular domain; Bought; also called hLTβR; not shown: Fc fragment at the C-terminus
Experimental: as §1, §2

[3] = target: T3, mouse LTβR extracellular domain fused with an Fc fragment at the C-terminus (mouse, UniProt P50284 31-223)
T3 construct: extracellular domain; Bought; also called mLTβR; not shown: Fc fragment at the C-terminus
Experimental: as §1, §2

[4] = target: T4, mouse HVEM extracellular domain fused with an Fc fragment at the C-terminus (mouse, UniProt Q80WM9 39-206, limits assumed)
T4 construct: extracellular domain; Bought; also called mHVEM; not shown: Fc fragment at the C-terminus
T4 sequence (looked up): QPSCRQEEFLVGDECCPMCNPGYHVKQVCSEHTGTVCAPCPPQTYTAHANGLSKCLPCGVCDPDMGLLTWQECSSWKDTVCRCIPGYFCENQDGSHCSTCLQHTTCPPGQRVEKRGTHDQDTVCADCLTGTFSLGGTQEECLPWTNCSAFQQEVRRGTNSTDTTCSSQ
Experimental: as §1, §2

T2 sequence (P36941 31-227): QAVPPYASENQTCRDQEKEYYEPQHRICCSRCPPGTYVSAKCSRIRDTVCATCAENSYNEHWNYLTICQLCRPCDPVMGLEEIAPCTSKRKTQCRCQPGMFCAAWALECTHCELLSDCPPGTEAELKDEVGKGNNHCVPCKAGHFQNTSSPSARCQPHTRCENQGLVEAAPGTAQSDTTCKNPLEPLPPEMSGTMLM
T3 sequence (P50284 31-223): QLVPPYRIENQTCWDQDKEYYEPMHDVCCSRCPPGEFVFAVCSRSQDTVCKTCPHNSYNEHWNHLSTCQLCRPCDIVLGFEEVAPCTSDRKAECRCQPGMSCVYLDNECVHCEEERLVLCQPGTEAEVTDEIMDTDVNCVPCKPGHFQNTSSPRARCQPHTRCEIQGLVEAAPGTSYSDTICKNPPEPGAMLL

B1: LIGHT-4 (ligand)
chain: DGPAGSWEQLIQERRSHEVNPAAHLTGANSSLTGSGGPLLWETQLGLAFLRGLSYHDGALVVTKAGYYYIYSKVQLGGMGCPLGLASPITHGLYKRTPRYPEELELLVSQQSPCGRATSSSRVWWDSSFLGGVVHLEAGEKVVVRVLDERLVRLLDGTRSYFGAFMV
notes: Printed mutations: V152M, T161P, R228L; Soluble protein carries an N-terminal His tag
B1: no binding [1]; binds [2]; binds [3]. B1: binds [4].

B2: LIGHT-82 (ligand)
chain: B1 chain with Q44E, M79V, S87G, P88G, L147S, E149S, L154T, L155R
notes: Printed mutations: Q117E, S160G, T161G, L220S, E222S, L227T; Soluble protein carries an N-terminal His tag
B2: binds [1]; binds [2]; binds [3].

B3: LIGHT-38 (ligand)
chain: B1 chain with M79V, P88T, Q111R, W125Q, L155R
notes: Printed mutations: Q184R, W198Q; Soluble protein carries an N-terminal His tag
B3: binds [1]; binds [2]; binds [3]. B3: binds [4].

B4: LIGHT-74 (ligand)
chain: B1 chain with Q44N, M79V, S87G, P88G, L147S, L154T, L155R
notes: Printed mutations: Q117N, S160G, T161G, L220S, L227T; Soluble protein carries an N-terminal His tag
B4: binds [1]; binds [2]; binds [3].

B5: LIGHT-83 (ligand)
chain: B1 chain with Q44E, M79V, S87G, L147S, E149S, L154T, L155R
notes: Printed mutations: Q117E, S160G, T161P, L220S, E222S, L227T; Soluble protein carries an N-terminal His tag
B5: binds [1]; binds [2]; binds [3].

B6: LIGHT-63 (ligand)
chain: B1 chain with M79V, P88G, L147S, L154T, L155R
notes: Printed mutations: T161G, L220S, L227T; Soluble protein carries an N-terminal His tag
B6: binds [1]; binds [2]; binds [3].

B7: LIGHT-62 (ligand)
chain: B1 chain with M79V, S87G, P88G, L147T, L155R
notes: Printed mutations: S160G, T161G, L220T; Soluble protein carries an N-terminal His tag
B7: binds [1]; binds [2]; binds [3].

B8: LIGHT-80 (ligand)
chain: B1 chain with Q44N, M79V, S87G, P88G, L147S, E149S, L154T, L155R
notes: Printed mutations: Q117N, S160G, T161G, L220S, E222S, L227T; Soluble protein carries an N-terminal His tag
B8: binds [1]; binds [2]; binds [3].

B9: LIGHT-85 (ligand)
chain: B1 chain with Q44E, M79V, S87G, P88S, L147S, E149S, L154T, L155R
notes: Printed mutations: Q117E, S160G, T161S, L220S, E222S, L227T; Soluble protein carries an N-terminal His tag
B9: binds [1]; binds [2]; binds [3].

B10: LIGHT-77 (ligand)
chain: B1 chain with Q44E, M79V, S87G, L147S, L154T, L155R
notes: Printed mutations: Q117E, S160G, T161P, L220S, L227T; Soluble protein carries an N-terminal His tag
B10: binds [1]; binds [2]; binds [3].

B11: LIGHT-73 (ligand)
chain: B1 chain with Q44E, M79V, P88G, L147S, L154T, L155R
notes: Printed mutations: Q117E, T161G, L220S, L227T; Soluble protein carries an N-terminal His tag
B11: binds [1]; binds [2]; binds [3].

B12: LIGHT-55 (ligand)
chain: B1 chain with Q44N, M79V, P88T, L147T, L154T, L155R
notes: Printed mutations: Q117N, L220T, L227T; Soluble protein carries an N-terminal His tag
B12: binds [1]; binds [2]; binds [3].

B13: LIGHT-72 (ligand)
chain: B1 chain with Q44N, M79V, S87G, P88T, L147S, L154T, L155R
notes: Printed mutations: Q117N, S160G, L220S, L227T; Soluble protein carries an N-terminal His tag
B13: binds [1]; binds [2]; binds [3].

B14: LIGHT-79 (ligand)
chain: B1 chain with Q44E, M79V, S87G, P88S, L147S, L154T, L155R
notes: Printed mutations: Q117E, S160G, T161S, L220S, L227T; Soluble protein carries an N-terminal His tag
B14: binds [1]; binds [2]; binds [3].

B15: LIGHT-64 (ligand)
chain: B1 chain with M79V, L147S, L154T, L155R
notes: Printed mutations: T161P, L220S, L227T; Soluble protein carries an N-terminal His tag
B15: binds [1]; binds [2]; binds [3].

B16: LIGHT-6 (ligand)
chain: B1 chain with M79V, P88T, W125Q, L147N, D148G, L155R
notes: Printed mutations: W198Q, L220N, D221G; Soluble protein carries an N-terminal His tag
B16: no binding [1]; binds [2]; binds [3]. B16: binds [4].

B17: LIGHT-56 (ligand)
chain: B1 chain with Q44E, M79V, P88T, L147T, L154T, L155R
notes: Printed mutations: Q117E, L220T, L227T; Soluble protein carries an N-terminal His tag
B17: binds [1]; binds [2]; binds [3].

B18: LIGHT-13 (ligand)
chain: B1 chain with S31P, M79V, G84S, P88T, H135Y, L147R, L155R
notes: Printed mutations: S104P, G157S, H208Y, L220R; Soluble protein carries an N-terminal His tag
B18: binds [1]; binds [2]; binds [3]. B18: binds [4].

B19: LIGHT-78 (ligand)
chain: B1 chain with Q44N, M79V, S87G, P88S, L147S, L154T, L155R
notes: Printed mutations: Q117N, S160G, T161S, L220S, L227T; Soluble protein carries an N-terminal His tag
B19: binds [1]; binds [2]; binds [3].

B20: LIGHT-69 (ligand)
chain: B1 chain with M79V, S87G, L147S, L154T, L155R
notes: Printed mutations: S160G, T161P, L220S, L227T; Soluble protein carries an N-terminal His tag
B20: binds [1]; binds [2]; binds [3].

B21: LIGHT-8 (ligand)
chain: B1 chain with G77S, M79V, S87G, P88T, L147S, L155R
notes: Printed mutations: G150S, S160G, L220S; Soluble protein carries an N-terminal His tag
B21: no binding [1]; binds [2]; binds [3]. B21: binds [4].

B22: LIGHT-81 (ligand)
chain: B1 chain with Q44N, M79V, S87G, L147S, E149S, L154T, L155R
notes: Printed mutations: Q117N, S160G, T161P, L220S, E222S, L227T; Soluble protein carries an N-terminal His tag
B22: binds [1]; binds [2]; binds [3].

B23: LIGHT-67 (ligand)
chain: B1 chain with M79V, P88S, L147S, L154T, L155R
notes: Printed mutations: T161S, L220S, L227T; Soluble protein carries an N-terminal His tag
B23: binds [1]; binds [2]; binds [3].

B24: LIGHT-53 (ligand)
chain: B1 chain with Q44N, M79V, P88T, L147S, L154T, L155R
notes: Printed mutations: Q117N, L220S, L227T; Soluble protein carries an N-terminal His tag
B24: binds [1]; binds [2]; binds [3].

B25: LIGHT-70 (ligand)
chain: B1 chain with Q44N, M79V, P88G, L147S, L154T, L155R
notes: Printed mutations: Q117N, T161G, L220S, L227T; Soluble protein carries an N-terminal His tag
B25: binds [1]; binds [2]; binds [3].

B26: LIGHT-54 (ligand)
chain: B1 chain with Q44E, M79V, P88T, L147S, L154T, L155R
notes: Printed mutations: Q117E, L220S, L227T; Soluble protein carries an N-terminal His tag
B26: binds [1]; binds [2]; binds [3].

B27: LIGHT-71 (ligand)
chain: B1 chain with Q44N, M79V, L147S, L154T, L155R
notes: Printed mutations: Q117N, T161P, L220S, L227T; Soluble protein carries an N-terminal His tag
B27: binds [1]; binds [2]; binds [3].

B28: LIGHT-66 (ligand)
chain: B1 chain with M79V, S87G, P88T, L147T, L154T, L155R
notes: Printed mutations: S160G, L220T, L227T; Soluble protein carries an N-terminal His tag
B28: binds [1]; binds [2]; binds [3].

B29: LIGHT-59 (ligand)
chain: B1 chain with M79V, S87G, L147S, L155R
notes: Printed mutations: S160G, T161P, L220S; Soluble protein carries an N-terminal His tag
B29: binds [1]; binds [2]; binds [3].

B30: LIGHT-68 (ligand)
chain: B1 chain with M79V, S87G, P88G, L147S, L154T, L155R
notes: Printed mutations: S160G, T161G, L220S, L227T; Soluble protein carries an N-terminal His tag
B30: binds [1]; binds [2]; binds [3].

B31: LIGHT-75 (ligand)
chain: B1 chain with Q44N, M79V, S87G, L147S, L154T, L155R
notes: Printed mutations: Q117N, S160G, T161P, L220S, L227T; Soluble protein carries an N-terminal His tag
B31: binds [1]; binds [2]; binds [3].

B32: LIGHT-65 (ligand)
chain: B1 chain with M79V, S87G, P88T, L147S, L154T, L155R
notes: Printed mutations: S160G, L220S, L227T; Soluble protein carries an N-terminal His tag
B32: binds [1]; binds [2]; binds [3].

B33: LIGHT-57 (ligand)
chain: B1 chain with M79V, P88T, L147S, L154T, L155R
notes: Printed mutations: L220S, L227T; Soluble protein carries an N-terminal His tag
B33: binds [1]; binds [2]; binds [3].
